Assay results taken from PMC10614411, “Endometrial cancer (EC) derived G3BP1 overexpression and mutant promote EC tumorigenesis and metastasis via SPOP/ERα axis” (Cell Communication and Signaling : CCS, 2023).

Target: T1, FLAG-G3BP1 Q392*, bacterially expressed (UniProt Q13283 1-391, Q392*)
T1 construct: The bacterial expression construct is not described in the methods; source: bacterially expressed
Assay: pull-down; GST fusion protein fixed on glutathione-Sepharose beads, incubated with recombinant FLAG-labeled proteins for 2 h, washed 5 times, Western blot with anti-FLAG
Settings: both partners purified

T1 sequence (Q13283 1-391, stated change not applied): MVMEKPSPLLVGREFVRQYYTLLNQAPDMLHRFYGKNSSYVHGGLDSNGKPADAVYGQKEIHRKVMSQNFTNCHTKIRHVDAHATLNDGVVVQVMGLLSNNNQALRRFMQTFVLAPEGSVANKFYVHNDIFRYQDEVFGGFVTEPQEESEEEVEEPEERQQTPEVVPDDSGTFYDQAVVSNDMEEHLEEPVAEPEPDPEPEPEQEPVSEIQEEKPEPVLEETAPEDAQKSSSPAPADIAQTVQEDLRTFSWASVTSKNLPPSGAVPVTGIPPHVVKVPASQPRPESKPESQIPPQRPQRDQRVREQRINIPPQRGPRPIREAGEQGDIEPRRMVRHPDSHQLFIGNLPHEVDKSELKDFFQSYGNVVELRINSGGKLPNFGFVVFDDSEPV

binding result: binds
B1: GST-SPOP, bacterially expressed (natural protein, UniProt O43791 1-374, looked up)
chain: MSRVPSPPPPAEMSSGPVAESWCYTQIKVVKFSYMWTINNFSFCREEMGEVIKSSTFSSGANDKLKWCLRVNPKGLDEESKDYLSLYLLLVSCPKSEVRAKFKFSILNAKGEETKAMESQRAYRFVQGKDWGFKKFIRRDFLLDEANGLLPDDKLTLFCEVSVVQDSVNISGQNTMNMVKVPECRLADELGGLWENSRFTDCCLCVAGQEFQAHKAILAARSPVFSAMFEHEMEESKKNRVEINDVEPEVFKEMMCFIYTGKAPNLDKMADDLLAAADKYALERLKVMCEDALCSNLSVENAAEILILADLHSADQLKTQAVDFINYHASDVLETSGWKSMVVSHPHLVAEAYRSLASAQCPFLGPPRKRLKQS
notes: SPOP as a GST fusion protein; The bacterial expression construct is not described in the methods
